Assay results reported in US20030162168A1.

Biological target: chimera H (HCV NS3 to NS5B-P6' fused to tTA, NS3 active site mutant S1165A, unmodified NS5A/5B junction) (Hepatitis C virus 1b (human serum isolate))
Test: cell-based or functional assay

With “chimera I (HCV NS3 to NS5B-P6' fused to tTA, NS5A/5B cleavage site P1-P1' mutated to R-P; source of active NS3 protease)” the luciferase activity, triple transfection of chimera H, I and the pUHC13-3 reporter into 293 cells was 2e+06 cps.
